Experimental data from patent US20260317429 (published 2026).
Read-outs that look alike come from different tables or passages of the source.

T1: FGFR2IIIb-his (ECD) (human)
T1 chain: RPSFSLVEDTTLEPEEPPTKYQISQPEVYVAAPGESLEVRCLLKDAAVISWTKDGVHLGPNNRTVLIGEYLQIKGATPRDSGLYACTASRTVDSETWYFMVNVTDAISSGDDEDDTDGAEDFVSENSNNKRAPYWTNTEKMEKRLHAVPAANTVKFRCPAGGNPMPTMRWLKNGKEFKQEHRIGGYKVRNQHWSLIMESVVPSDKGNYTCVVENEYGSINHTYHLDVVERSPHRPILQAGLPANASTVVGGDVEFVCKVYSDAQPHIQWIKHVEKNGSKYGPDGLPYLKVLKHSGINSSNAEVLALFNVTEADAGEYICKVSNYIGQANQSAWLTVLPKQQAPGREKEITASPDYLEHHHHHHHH

T2: mouse FGFR2IIIb (mouse, UniProt P21803)
T2 chain: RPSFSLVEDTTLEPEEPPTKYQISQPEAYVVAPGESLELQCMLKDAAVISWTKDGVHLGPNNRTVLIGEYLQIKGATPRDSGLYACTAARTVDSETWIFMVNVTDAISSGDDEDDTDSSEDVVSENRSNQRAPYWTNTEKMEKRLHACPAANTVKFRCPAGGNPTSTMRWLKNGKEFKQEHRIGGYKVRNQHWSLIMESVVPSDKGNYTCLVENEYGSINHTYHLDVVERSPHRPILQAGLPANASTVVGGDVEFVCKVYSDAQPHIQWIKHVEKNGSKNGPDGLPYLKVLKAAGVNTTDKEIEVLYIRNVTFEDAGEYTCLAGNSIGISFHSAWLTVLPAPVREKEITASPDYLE


Columns and labels:
FGFR2IIIb-his (ECD) [1] = molecular target: T1, FGFR2IIIb-his (ECD); test: ELISA
FGFR2IIIb-Fc [2] = molecular target: T3, FGFR2IIIb-Fc (human, UniProt P21802); test: competition ELISA, FGF10
FGFR2IIIb on cells [3] = molecular target: T4, FGFR2IIIb on cells (human, UniProt P21802); test: FACS, SNU-16
FGFR2IIIb-Fc [4] = molecular target: T3, FGFR2IIIb-Fc; test: competition ELISA, FGF1
FGFR2IIIb-his (ECD) [5] = molecular target: T1, FGFR2IIIb-his (ECD); test: ELISA
FGFR2IIIb on cells [6] = molecular target: T4, FGFR2IIIb on cells; test: FACS, CHO-FGFR2IIIb
Target sequence in this assay (P21802 22-377): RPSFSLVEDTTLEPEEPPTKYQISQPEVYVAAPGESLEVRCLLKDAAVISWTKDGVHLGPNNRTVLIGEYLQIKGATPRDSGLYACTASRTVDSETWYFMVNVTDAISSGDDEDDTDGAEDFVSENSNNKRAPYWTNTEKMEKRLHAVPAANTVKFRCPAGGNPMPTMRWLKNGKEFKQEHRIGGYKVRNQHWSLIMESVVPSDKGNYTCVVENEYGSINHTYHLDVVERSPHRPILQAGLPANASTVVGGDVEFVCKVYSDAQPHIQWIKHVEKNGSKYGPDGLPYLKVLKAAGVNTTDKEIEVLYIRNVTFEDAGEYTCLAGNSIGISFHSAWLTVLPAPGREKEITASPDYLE

FGFR2IIIb-Fc [7] = molecular target: T3, FGFR2IIIb-Fc; test: competition ELISA, FGF7
FGFR2IIIb-his (ECD) [8] = molecular target: T1, FGFR2IIIb-his (ECD); test: SPR
FGFR2IIIb-Fc [9] = molecular target: T3, FGFR2IIIb-Fc; test: competition ELISA, FGF7; remark: listed apart in the source
FGFR2IIIb on cells [10] = molecular target: T4, FGFR2IIIb on cells; test: FACS, SNU-16; remark: listed apart in the source
Target sequence in this assay (P21802 22-377): as above

FGFR2IIIb-Fc [11] = molecular target: T3, FGFR2IIIb-Fc; test: competition ELISA, FGF1; remark: listed apart in the source
FGFR2IIIb on cells [12] = molecular target: T4, FGFR2IIIb on cells; test: FACS, CHO-FGFR2IIIb; remark: listed apart in the source
FGFR2IIIb-Fc [13] = molecular target: T3, FGFR2IIIb-Fc; test: competition ELISA, FGF10; remark: listed apart in the source
FGFR2IIIb-his (ECD) [14] = molecular target: T1, FGFR2IIIb-his (ECD); test: ELISA
FGFR2IIIc-his (ECD) = FGFR2IIIc-his (ECD) (human); test: ELISA
FGFR2IIIb-Fc [15] = molecular target: T3, FGFR2IIIb-Fc; test: competition ELISA, FGF7; remark: listed apart in the source
FGFR2IIIb-Fc [16] = molecular target: T3, FGFR2IIIb-Fc; test: competition ELISA, FGF10; remark: listed apart in the source
FGFR2IIIb-Fc [17] = molecular target: T3, FGFR2IIIb-Fc; test: competition ELISA, FGF1; remark: listed apart in the source
Target sequence in this assay (P21802 22-377): as above

FGFR2IIIb-Fc [18] = molecular target: T3, FGFR2IIIb-Fc; test: competition ELISA, FGF10; remark: listed apart in the source
Target sequence in this assay (P21802 22-377): as above

mouse FGFR2IIIb = molecular target: T2, mouse FGFR2IIIb; test: ELISA

Binder | EC50 (FGFR2IIIb-his (ECD) [1]) [µg/mL] | EC50 (FGFR2IIIb on cells [6]) [µg/mL] | Kd (FGFR2IIIb-his (ECD) [8]) [nM] | EC50 (FGFR2IIIb on cells [10]) [µg/mL] | IC50 (FGFR2IIIb-Fc [17]) [µg/mL] | IC50 (FGFR2IIIb-Fc [18]) [µg/mL] | also measured
III-0 (antibody, V domains shown) VH: QVQLQQPGAELVRPGASVKMSCKASGYTFANYNMHWVKQTPRQGLEWIGAIYPGNGDTSYNQKFKGKATLTADKSSSTAYMQLSSLTSEDSAVYYCARGDFGYWGQGTTLTVSS VL: DIVMTQSHKFMSTSVGDRVTITCKASQDVNIDVAWYQQKPGQSPKLLIYSASYRYTGVPDRFTGSGSGTDFTFTISSVQAEDLAVYYCQQHYSTPYTFGGGTKLEIK | 0.048 | 0.342 | 81.3 | 0.74 |  |  | IC50 (FGFR2IIIb-Fc [2]): 0.745 µg/mL; EC50 (FGFR2IIIb on cells [3]): 1.64 µg/mL; IC50 (FGFR2IIIb-Fc [4]): 0.904 µg/mL; EC50 (FGFR2IIIb-his (ECD) [5]): 0.0404 µg/mL; IC50 (FGFR2IIIb-Fc [7]): 0.603 µg/mL; IC50 (FGFR2IIIb-Fc [9]): 0.694 µg/mL; IC50 (FGFR2IIIb-Fc [11]): 0.692 µg/mL; EC50 (FGFR2IIIb on cells [12]): 1.01 µg/mL; IC50 (FGFR2IIIb-Fc [13]): 0.84 µg/mL
27E9A11 (antibody, V domains shown) VH: QVQLQQPGAELVRPGASVKMSCKASGYTFANYNMHWVKQTPRQGLEWIGAIYPGNGDTSYNQKFKGKATLTADKSSSTAYMQLSSLTSEDSAVYYCARGDFGYWGQGTTLTVSS VL: DIVMTQSHKFMSTSVGDRVTITCKASQDVNIDVAWYQQKPGQSPKLLIYSASYRYTGVPDRFTGSGSGTDFTFTISSVQAEDLAVYYCQQHYSTPYTFGGGTKLEIK |  |  |  |  |  |  | EC50 (FGFR2IIIb-his (ECD) [14]): 0.05 µg/mL; binding result (FGFR2IIIc-his (ECD)): no binding; IC50 (FGFR2IIIb-Fc [15]): 0.417 µg/mL; IC50 (FGFR2IIIb-Fc [16]): 0.545 µg/mL
III-11 (antibody, V domains shown) VH: QVQLVQSGAEVKKPGSSVKVSCKASGYTFAIYNMHWVRQAPGQGLEWIGAIYPDNGDTFYNQKFKGKATLTADKSTSTAYMELSSLRSEDTAVYYCARGDFGYWGQGTLVTVSS VL: DIVMTQSPSSLSASVGDRVTITCKASQDVNIDPAWYQQKPGKAPKLLIYLASYRYTGVPSRFSGSGSGTDFTFTISSLQPEDFATYYCQQHYSTPYTFGQGTKLEIK | 0.051 | 0.19 | 1.24 | 0.319 | 1.18 | 0.976 | 
III-10 (antibody, V domains shown) VH: QVQLVQSGAEVKKPGSSVKVSCKASGYTFANYNMHWVRQAPGQGLEWIGAIYPGNGDTSYNQKFKGKATLTADKSTSTAYMELSSLRSEDTAVYYCARGDFGYWGQGTLVTVSS VL: DIVMTQSPSSLSASVGDRVTITCKASQDVNIDVAWYQQKPGKAPKLLIYSASYRYTGVPSRFSGSGSGTDFTFTISSLQPEDFATYYCQQHYSTPYTFGQGTKLEIK | 0.052 | 0.257 | 68.1 | 0.471 |  |  | IC50 (FGFR2IIIb-Fc [2]): 0.724 µg/mL; EC50 (mouse FGFR2IIIb): 0.127 µg/mL; IC50 (FGFR2IIIb-Fc [7]): 0.565 µg/mL; IC50 (FGFR2IIIb-Fc [11]): 0.581 µg/mL
III-12 (antibody, V domains shown) VH: QVQLVQSGAEVKKPGSSVKVSCKASGYTFANYNMHWVRQAPGQGLEWIGAIYPDNGDTSYNQKFKGKATLTADKSTSTAYMELSSLRSEDTAVYYCARGDFGYWGQGTLVTVSS VL: DIVMTQSPSSLSASVGDRVTITCKASQDVNIDVAWYQQKPGKAPKLLIYLASYRYTGVPSRFSGSGSGTDFTFTISSLQPEDFATYYCQQTYSTPYTFGQGTKLEIK |  |  | 1.32 |  | 1.08 | 0.999 | 

Continued, in another order:

EC50 (FGFR2IIIb-his (ECD) [1]) [µg/mL] | EC50 (FGFR2IIIb on cells [6]) [µg/mL] | Kd (FGFR2IIIb-his (ECD) [8]) [nM] | EC50 (FGFR2IIIb on cells [10]) [µg/mL] | IC50 (FGFR2IIIb-Fc [17]) [µg/mL] | IC50 (FGFR2IIIb-Fc [18]) [µg/mL] | Binder | also measured
0.042 | 0.26 | 1.04 | 0.378 | 0.941 | 0.805 | III-15 (antibody, V domains shown) VH: QVQLVQSGAEVKKPGSSVKVSCKASGYTFAIYNMHWVRQAPGQGLEWIGAIYPDNGDTFYNQKFKGKATLTADKSTSTAYMELSSLRSEDTAVYYCARGDFGYWGQGTLVTVSS VL: DIVMTQSPSSLSASVGDRVTITCKASQDVNIDVAWYQQKPGKAPKLLIYLASYRYTGVPSRFSGSGSGTDFTFTISSLQPEDFATYYCQQTYSTPYTFGQGTKLEIK | 
 |  | 1.23 |  | 0.966 | 0.905 | III-13 (antibody, V domains shown) VH: QVQLVQSGAEVKKPGSSVKVSCKASGYTFAIYNMHWVRQAPGQGLEWIGAIYPDNGDTSYNQKFKGKATLTADKSTSTAYMELSSLRSEDTAVYYCARGDFGYWGQGTLVTVSS VL: DIVMTQSPSSLSASVGDRVTITCKASQDVNIDVAWYQQKPGKAPKLLIYLASYRYTGVPSRFSGSGSGTDFTFTISSLQPEDFATYYCQQTYSTPYTFGQGTKLEIK | 
0.058 | 0.263 | 1.26 | 0.526 | 0.974 | 0.937 | III-14 (antibody, V domains shown) VH: QVQLVQSGAEVKKPGSSVKVSCKASGYTFAIYNMHWVRQAPGQGLEWIGAIYPGNGDTFYNQKFKGKATLTADKSTSTAYMELSSLRSEDTAVYYCARGDFGYWGQGTLVTVSS VL: DIVMTQSPSSLSASVGDRVTITCKASQDVNIDVAWYQQKPGKAPKLLIYLASYRYTGVPSRFSGSGSGTDFTFTISSLQPEDFATYYCQQTYSTPYTFGQGTKLEIK | 
